Results reported in publication PMC4508888.

B1: EGFP-Myo1b (natural protein)
chain: MAKKEVKSSLLDNMIGVGDTVLLEPLNEETFIDNLKKRFDHNEIYTYIGSVVISVNPYRSLPIYSPEKVEDYRNRNFYELSPHIFALSDEAYRSLRDQDKDQCILITGESGAGKTEASKLVMSYVAAVCGKGAEVNQVKEQLLQSTPVLEAFGNAKTVRNDNSSRFGKYMDIEFDFKGDPLGGVISNYLLEKSRVVKQPRGERNFHVFYQLLSGASEELLHKLKLERDFSRYNYLSLDSAKVNGVDDAANFRTVRNAMQIVGFSDPEAESVLEVVAAVLKLGNIEFKPESRMNGLDESKIKDKNELKEICELTSIDQVVLERAFSFRTVEAKQEKVSTTLNVAQAYYARDALAKNLYSRLFSWLVNRINESIKAQTKVRKKVMGVLDIYGFEIFEDNSFEQFIINYCNEKLQQIFIELTLKEEQEEYIREDIEWTHIDYFNNAIICDLIENNTNGILAMLDEECLRPGTVTDETFLEKLNQVCATHQHFESRMSKCSRFLNDTTLPHSCFRIQHYAGKVLYQVEGFVDKNNDLLYRDLSQAMWKAGHALIKSLFPEGNPAKVNLKRPPTAGSQFKASVATLMKNLQTKNPNYIRCIKPNDKKAAHIFSESLVCHQIRYLGLLENVRVRRAGYAFRQAYEPCLERYKMLCKQTWPHWKGPARSGVEVLFNELEIPVEEYSFGRSKIFIRNPRTLFQLEDLRKQRLEDLATLIQKIYRGWKCRTHFLLMKRSQVVIAAWYRRYAQQKRYQQIKSSALVIQSYIRGWKARKILRELKHQKRCKEAATTIAAYWHGTQARKERRRLKDEARNKHAIAVIWAFWLGSKARRELKRLKEEARRKHAVAVIWAYWLGLKVRREYRKFFRANAGKKIYEFTLQRIVQKYLLEMKNKMPSLSPIDKNWPSRPYLFLDSTHKELKRIFHLWRCKKYRDQFTDQQKLIYEEKLEASELFKDKKALYPSSVGQPFQGAYLEINKNPKYKKLKDAIEEKIIIAEVVNKINRANGKSTSRIFLLTNNNLLLADQKSGQIKSEVPLVDVTKVSMSSQNDGFFAVHLKEGSEAASKGDFLFSSDHLIEMATKLYRTTLSQTKQKLNIEISDEFLVQFRQDKVCVKFIQGNQKNGSVPTCKRKNNRLLEVAVP

Legend:
Test in all cases: co-IP
EGFP-Myo1b (rat) = EGFP-Myo1b (rat) (UniProt Q05096)
EGFP-Myo1b motor (rat) = biological target: EGFP-Myo1b motor (rat)
EGFP-Myo1b-Tail (rat) = biological target: EGFP-Myo1b-Tail (rat)
Flag-EphB2-KD = Flag-EphB2-KD (UniProt P54763)

Molecule	percent of Flag-EphB2 co-precipitated with EGFP-Myo1b after genistein treatment (EGFP-Myo1b (rat))	percent of Flag-EphB2 pulled down against EGFP-Myo1b (EGFP-Myo1b motor (rat))	fold of Flag-EphB2 pulled down against EGFP-Myo1b (EGFP-Myo1b-Tail (rat))	percent of EGFP-Myo1b co-precipitated against Flag-EphB2 (Flag-EphB2-KD)
Flag-EphB2 (from UniProt P54763 19-986) (receptor)	29%	50%	> 2 fold	–
B1	–	–	–	16%
